# Measurements reported in article PMC4605657, “Interaction between TATA-Binding Protein (TBP) and Multiprotein Bridging Factor-1 (MBF1) from the Filamentous Insect Pathogenic Fungus Beauveria bassiana”.
# Target: BbMBF1 (multiprotein bridging factor 1) (Beauveria bassiana, UniProt J4WFU2 1-153)
# Test: EMSA; Binding buffer (4 ul in 20 ul reaction): 60 mM KCl, 20 mM Tris pH 7.9, 5 mM MgCl2, 10 mM DTT, 0.2 mg/ml BSA, 10% glycerol; 30 min at 37 C; 6% non-denaturing PAGE
# Details: protein: recombinant; tags: 6xHis (C-terminal; pET28a, thrombin site); blunt
row,Binder,binding result
1,TATA0 (dsDNA) DNA 1: CAGTAAAAGCTTGGTAGTATTTCTTCTCTCTTTCAC DNA 2: GTGAAAGAGAGAAGAAATACTACCAAGCTTTTACTG,no binding
2,TATAP (dsDNA) DNA 1: GGAGCGGCATATGTCAAGTATAAAGAGCGGAATGTTTTTC DNA 2: GAAAAACATTCCGCTCTTTATACTTGACATATGCCGCTCC,no binding
3,TATAC (dsDNA) DNA 1: CAGTAAAAGCTTGGTAGTATTTATATCTTCTCTCTTTCAC DNA 2: GTGAAAGAGAGAAGATATAAATACTACCAAGCTTTTACTG,no binding
